From CN115043940A (TIANCHEN BIOMEDICAL SUZHOU CO LTD, dated 2022)
Values belong to the binder of their own block, whether it stands above or below them.

How the values were obtained:
[1] = biological target: T1, 人血清白蛋白(Human Serum Albumin,HSA) (human, UniProt P02768 25-609); assay: Octet BLI, biotinylated HSA on SA sensor, VHH in solution
T1 construct: The only source named is native HSA (abcam ab205808), for immunisation; also called HSA蛋白; HSA抗原

[2] = biological target: T2, 食蟹猴血清白蛋白 (cynomolgus monkey (食蟹猴), UniProt A2V9Z4 25-608, biotin-labelled (sites not given)); assay: Octet BLI, biotinylated cynomolgus serum albumin on SA sensor, VHH in solution
T2 construct: Biotin-labelled and loaded on SA sensors in the Octet assay; also called albumin-macaca; alb-ma
T2 sequence (A2V9Z4 25-608 limits assumed): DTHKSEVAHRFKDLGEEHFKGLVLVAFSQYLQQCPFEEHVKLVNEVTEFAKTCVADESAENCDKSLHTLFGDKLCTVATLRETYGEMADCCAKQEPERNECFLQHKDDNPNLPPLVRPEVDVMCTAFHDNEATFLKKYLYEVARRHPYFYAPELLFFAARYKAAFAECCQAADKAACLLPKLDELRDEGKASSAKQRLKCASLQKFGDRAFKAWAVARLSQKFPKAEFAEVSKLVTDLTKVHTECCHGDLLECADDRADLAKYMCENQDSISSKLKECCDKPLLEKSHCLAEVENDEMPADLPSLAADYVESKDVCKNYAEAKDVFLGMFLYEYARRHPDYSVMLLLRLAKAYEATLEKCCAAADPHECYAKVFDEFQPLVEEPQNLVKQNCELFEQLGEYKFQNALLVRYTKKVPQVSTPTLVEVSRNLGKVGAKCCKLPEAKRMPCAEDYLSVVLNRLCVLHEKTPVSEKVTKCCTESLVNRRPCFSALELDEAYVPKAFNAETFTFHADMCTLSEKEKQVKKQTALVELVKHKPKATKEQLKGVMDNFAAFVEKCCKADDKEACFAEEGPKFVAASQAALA

T1 sequence (P02768 25-609 limits assumed): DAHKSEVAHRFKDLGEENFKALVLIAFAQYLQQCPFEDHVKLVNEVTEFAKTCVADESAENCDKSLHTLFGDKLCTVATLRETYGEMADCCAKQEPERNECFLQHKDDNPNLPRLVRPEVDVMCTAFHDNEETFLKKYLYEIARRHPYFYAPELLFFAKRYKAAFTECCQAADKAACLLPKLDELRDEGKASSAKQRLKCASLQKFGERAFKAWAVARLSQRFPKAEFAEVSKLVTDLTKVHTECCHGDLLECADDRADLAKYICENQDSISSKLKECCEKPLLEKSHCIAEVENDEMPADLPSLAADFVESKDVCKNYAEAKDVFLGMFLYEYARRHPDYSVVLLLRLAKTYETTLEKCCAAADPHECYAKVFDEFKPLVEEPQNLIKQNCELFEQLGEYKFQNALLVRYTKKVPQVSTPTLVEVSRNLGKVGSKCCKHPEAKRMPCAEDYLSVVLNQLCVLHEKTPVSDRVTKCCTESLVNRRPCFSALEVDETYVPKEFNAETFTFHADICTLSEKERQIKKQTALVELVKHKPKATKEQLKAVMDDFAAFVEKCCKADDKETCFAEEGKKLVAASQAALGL

- Kd [1]: 0.109 nM
- koff [1]: 0.00014 s⁻¹
- kon [1]: 1.29e+06 M⁻¹ s⁻¹
- Kd [2]: 0.708 nM
- koff [2]: 6.47e-05 s⁻¹
- kon [2]: 91300 M⁻¹ s⁻¹
B1: 单域抗体LB22 (VHH)
VHH: QVQLQESGGGVVQPGGSLRLSCTASGFTFSVYAMGWYRQAPGKDCELVGLITSTSDTRYADSVKGRFSISRDNAKKTVYLQMNRLKPEDTAVYYCMAGNSWGATVQAMCKSDYDYWGQGTQVTVSS
notes: not shown: C-terminal 6xHis-tag and HA-tag

- Kd [1]: 1.24 nM
- koff [1]: 0.000687 s⁻¹
- kon [1]: 554000 M⁻¹ s⁻¹
- Kd [2]: 0.217 nM
- koff [2]: 2.69e-05 s⁻¹
- kon [2]: 124000 M⁻¹ s⁻¹
B2: 单域抗体LB21 (VHH)
VHH: QVQLVESGGGLVQPGGSLRLSCAASRIIFDVYNLAWFRQAPGKERELVASITSGLSTDYATTVKGRFIISRDNAKNTVYLQMNNLKPEDTAVYYCTANSRTTWYYWGQGTLVTVSS
notes: as for B1
